Data from paper PMC10618305, “An intramolecular disulphide bond in human 4E-T affects its binding to eIF4E1a protein” (European Biophysics Journal, 2023).
Residue numbers refer to the chain shown, from its start. In names and notes the source's numbering stands. Values belong to the molecule of their own block, whether it stands above or below them. Bridge positions count the residues as written; N and C are the ends.

What was measured:
[1] = molecular target: human eIF4E1a protein (human) (UniProt P06730); assay: differential scanning fluorimetry (thermal shift); non-reducing: 50 mM HEPES-KOH pH 7.2, 100 mM KCl, no TCEP; 5 µM eIF4E1a with 0-50 µM h4E-T(1-68) variant incubated without TCEP (up to 48 h, 4 or 20 °C), or SEC-purified dimers at 1:1; SYPRO Orange; shift of the Tm of eIF4E1a
Sequence of human eIF4E1a protein (human) (P06730 whole entry): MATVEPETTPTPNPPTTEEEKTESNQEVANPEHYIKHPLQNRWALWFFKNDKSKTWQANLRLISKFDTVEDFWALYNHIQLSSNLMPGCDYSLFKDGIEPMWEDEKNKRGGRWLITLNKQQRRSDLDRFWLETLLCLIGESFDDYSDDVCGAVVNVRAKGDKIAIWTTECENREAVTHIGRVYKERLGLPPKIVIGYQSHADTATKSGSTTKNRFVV

[2] = molecular target: human 4E-T(1-68) wild type, monomer SH (both cysteines reduced) (human) (UniProt Q9NRA8); assay: SEC; non-reducing: monomer fractions incubated 24 h at 20 °C in TCEP-free 50 mM HEPES-KOH pH 7.2 with KCl, Enrich SEC70 column, 20 °C; dimers are held by intermolecular disulphide bonds
human eIF4E1a protein [3] = molecular target: T1, human eIF4E1a protein (human, UniProt P06730 1-217); assay: differential scanning fluorimetry (thermal shift); non-reducing: 50 mM HEPES-KOH pH 7.2, 100 mM KCl, no TCEP; 5 µM eIF4E1a with 0-50 µM h4E-T(1-68) variant incubated without TCEP (up to 48 h, 4 or 20 °C), or SEC-purified dimers at 1:1; SYPRO Orange; shift of the Tm of eIF4E1a; settings: both partners purified
T1 construct: human eukaryotic translation initiation factor 4E, isoform called eIF4E1a; Extinction coefficient used: 52,940 M^-1 cm^-1; also called heIF4E1a; eukaryotic initiation factor 4E
T1 sequence (P06730 whole entry, canonical isoform): as the sequence (P06730 whole entry) above

human eIF4E1a protein [4] = molecular target: T1, human eIF4E1a protein; assay: ITC; non-reducing: 50 mM HEPES-KOH pH 7.2, 100 mM KCl, no TCEP, 20 °C; 20 µM eIF4E1a in the cell titrated with 200 µM h4E-T(1-68) WT; one-site model; settings: both partners purified
human eIF4E1a protein [5] = molecular target: T1, human eIF4E1a protein; assay: differential scanning fluorimetry (thermal shift); non-reducing: 50 mM HEPES-KOH pH 7.2, 100 mM KCl, no TCEP; 5 µM eIF4E1a with 0-50 µM h4E-T(1-68) variant incubated without TCEP (up to 48 h, 4 or 20 °C), or SEC-purified dimers at 1:1; SYPRO Orange; shift of the Tm of eIF4E1a; settings: both partners purified; remark: listed apart in the source
human eIF4E1a protein [6] = molecular target: T2, human eIF4E1a protein (human, UniProt P06730 1-217); assay: ITC; eIF4E1a in the cell, titrated with a ten-fold concentrated h4E-T(1-68) variant (for WT: 20 uM eIF4E1a, 200 uM h4E-T); 20 °C; 50 mM HEPES-KOH pH 7.2, 100 mM KCl, without TCEP (non-reducing); one-site model; settings: both partners purified
T2 construct: eukaryotic translation initiation factor 4E, isoform 1a (eIF4E1a), human; Extinction coefficient used: 52,940 M^-1 cm^-1; also called heIF4E1a; eukaryotic initiation factor 4E
T2 sequence (P06730 whole entry, canonical isoform): as the sequence (P06730 whole entry) above

human eIF4E1a protein [7] = molecular target: T1, human eIF4E1a protein; assay: differential scanning fluorimetry (thermal shift); reducing: 50 mM HEPES-KOH pH 7.2, 100 mM KCl, 1 mM TCEP; 5 µM eIF4E1a with 0-50 µM h4E-T(1-68) variant; SYPRO Orange; shift of the Tm of eIF4E1a; settings: both partners purified
human eIF4E1a protein [8] = molecular target: T1, human eIF4E1a protein; assay: ITC; reducing: 50 mM HEPES-KOH pH 7.2, 100 mM KCl, 1 mM TCEP, 20 °C; 5 or 10 µM eIF4E1a in the cell titrated with ten-fold concentrated h4E-T(1-68) variant; one-site model; settings: both partners purified
human eIF4E1a protein [9] = molecular target: T1, human eIF4E1a protein; assay: differential scanning fluorimetry (thermal shift); reducing: 50 mM HEPES-KOH pH 7.2, 100 mM KCl, 1 mM TCEP; 5 µM eIF4E1a with 0-50 µM h4E-T(1-68) variant; SYPRO Orange; shift of the Tm of eIF4E1a; settings: both partners purified; remark: listed apart in the source
human eIF4E1a protein [10] = molecular target: T2, human eIF4E1a protein; assay: ITC; eIF4E1a (5 or 10 uM) in the cell, titrated with a ten-fold concentrated h4E-T(1-68) variant; 20 °C; 50 mM HEPES-KOH pH 7.2, 100 mM KCl, with 1 mM TCEP (reducing); one-site model; settings: both partners purified
[11] = molecular target: the molecule itself; assay: SEC; non-reducing: monomer fractions incubated 24 h at 20 °C in TCEP-free 50 mM HEPES-KOH pH 7.2 with KCl, Enrich SEC70 column, 20 °C; dimers are held by intermolecular disulphide bonds

Molecule: dimeric form of human 4E-T(1-68) C50A (intermolecular disulphide bond) (from UniProt Q9NRA8 1-68) (complex)
fold lower ΔTm than the corresponding monomer [1]: 2 fold | ΔTm lower than that of the monomer-dimer mixture [1]: 2.5 °C | ΔΔTm against the monomer SS of WT h4E-T(1-68), 1:1 mixture [1]: 7 °C

Molecule: dimeric form of human 4E-T(1-68) C26A (intermolecular disulphide bond) (from UniProt Q9NRA8 1-68) (complex)
fold lower ΔTm than the corresponding monomer [1]: 2 fold | ΔTm lower than that of the monomer-dimer mixture [1]: 2.5 °C | ΔΔTm against the monomer SS of WT h4E-T(1-68), 1:1 mixture [1]: 5.5 °C

B1: human 4E-T(1-68) wild type with the intramolecular disulphide bond Cys26-Cys50 (monomer SS) (domain or fragment, UniProt Q9NRA8 1-68, looked up)
chain: MDRRSMGETESGDAFLDLKKPPASKCPHRYTKEELLDIKELPHSKQRPSCLSEKYDSDGVWDPEKWHA
modifications: disulfide 26-50
notes: human 4E-Transporter (4E-T), N-terminal fragment, residues 1-68; Same construct as m2, oxidised; The samples without TCEP may still hold some monomer SH and a small fraction of dimer; also called h4E-T(1-68) WT under non-reducing conditions; disulphide loop form
ΔTm of eIF4E at eIF4E:h4E-T(1-68) 1:1 (human eIF4E1a protein [3]): 1 ± 0.5 °C | ΔTm of eIF4E at eIF4E:h4E-T(1-68) 1:10 (human eIF4E1a protein [3]): 9.5 ± 0.5 °C | Kd (human eIF4E1a protein [4]): 800 ± 96 nM | Tm of eIF4E in the 1:1 mixture (melting peak after 3 h at 20 °C without TCEP) (human eIF4E1a protein [5]): 41.5 ± 0.5 °C

B2: human 4E-T(1-68) wild type under non-reducing conditions (monomer SS, intramolecular disulphide bond) (domain or fragment, UniProt Q9NRA8 1-68, looked up)
chain: B1 chain
modifications: disulfide 26-50
notes: 4E-Transporter (4E-T), human, residues 1-68; Same construct as Wm2, in TCEP-free buffer; also called h4E-T(1-68) WT without TCEP; disulphide loop form
Ka (human eIF4E1a protein [6]): 1.25e+06 ± 150000 M⁻¹

B5: human 4E-T(1-68) C26A (domain or fragment, UniProt Q9NRA8 1-68, looked up)
chain: B1 chain with C26A
notes: 4E-Transporter (4E-T), human, residues 1-68, with C26A; also called h4E-T(1-68)C26A; C26A mutant
Ka (human eIF4E1a protein [6]): ~1e+08 M⁻¹ | Ka (human eIF4E1a protein [10]): 6.64e+08 ± 8.4e+07 M⁻¹

B6: human 4E-T(1-68) C50A (domain or fragment, UniProt Q9NRA8 1-68, looked up)
chain: B1 chain with C50A
notes: human 4E-Transporter (4E-T), N-terminal fragment, residues 1-68; Without TCEP the samples are a mixture of monomer and disulphide-linked dimer; also called C50A mutant
ΔTm of eIF4E at eIF4E:h4E-T(1-68) 1:1 (human eIF4E1a protein [7]): 11.5 ± 0.5 °C | ΔTm of eIF4E at eIF4E:h4E-T(1-68) 1:10 (human eIF4E1a protein [7]): 15.5 ± 0.5 °C | ΔTm of eIF4E at eIF4E:h4E-T(1-68) 1:1 (human eIF4E1a protein [3]): 10.5 ± 0.5 °C | ΔTm of eIF4E at eIF4E:h4E-T(1-68) 1:10 (human eIF4E1a protein [3]): 14.5 ± 0.5 °C | ΔTm of eIF4E at eIF4E:h4E-T(1-68) 1:1 (human eIF4E1a protein [9]): 12 ± 0.5 °C | stoichiometry N [11]: 2

Now from value to molecule, other results behind:

percent in the dimeric form [2]: 10% | stoichiometry N [2]: 2
Molecule: human 4E-T(1-68) wild type, monomer SH (both cysteines reduced) (from UniProt Q9NRA8 1-68) (domain or fragment)

Kd (human eIF4E1a protein [8]): 2.7 ± 0.5 nM
B3: human 4E-T(1-68) wild type, monomer SH (both cysteines reduced) (domain or fragment, UniProt Q9NRA8 1-68, looked up)
chain: B1 chain
notes: pET28a construct, His6-tag cleavable by thrombin; also called h4E-T(1-68) WT; h4ET(1-68)
ΔTm of eIF4E at eIF4E:h4E-T(1-68) 1:1 (human eIF4E1a protein [7]): 12 ± 0.5 °C | ΔTm of eIF4E at eIF4E:h4E-T(1-68) 1:10 (human eIF4E1a protein [7]): 15.5 ± 0.5 °C | Tm of eIF4E in the 1:1 mixture (zero time) (human eIF4E1a protein [9]): 52.5 ± 0.5 °C | Tm of eIF4E in the 1:1 mixture (melting peak after 3 h at 20 °C without TCEP) (human eIF4E1a protein [5]): 51.5 ± 0.5 °C

Ka (human eIF4E1a protein [10]): 3.73e+08 ± 6.8e+07 M⁻¹
B4: human 4E-T(1-68) wild type, reduced (monomer SH) (domain or fragment, UniProt Q9NRA8 1-68, looked up)
chain: B1 chain
notes: 4E-Transporter (4E-T), human, residues 1-68; The His6-tag is cleavable by thrombin, but no cleavage is described; Kept in 1 mM TCEP, with both cysteines reduced; also called h4E-T(1-68) WT; h4ET(1-68)

Ka (human eIF4E1a protein [6]): 3.27e+08 ± 2.2e+07 M⁻¹
B7: human 4E-T(1-68) C26AC50A (domain or fragment, UniProt Q9NRA8 1-68, looked up)
chain: B1 chain with C26A, C50A
notes: 4E-Transporter (4E-T), human, residues 1-68, with C26A and C50A; This mutant cannot form any disulphide bond; also called h4E-T(1-68)C26AC50A; double cysteine mutant

Kd (human eIF4E1a protein [8]): 3.1 ± 0.2 nM
B8: human 4E-T(1-68) C26AC50A (domain or fragment, UniProt Q9NRA8 1-68, looked up)
chain: B1 chain with C26A, C50A
notes: human 4E-Transporter (4E-T), N-terminal fragment, residues 1-68; also called double cysteine mutant
ΔTm of eIF4E at eIF4E:h4E-T(1-68) 1:1 (human eIF4E1a protein [3]): 10.5 ± 0.5 °C | ΔTm of eIF4E at eIF4E:h4E-T(1-68) 1:10 (human eIF4E1a protein [3]): 14.5 ± 0.5 °C

Kd (human eIF4E1a protein [8]): 1.5 ± 0.5 nM
B9: human 4E-T(1-68) C26A (domain or fragment, UniProt Q9NRA8 1-68, looked up)
chain: B1 chain with C26A
notes: human 4E-Transporter (4E-T), N-terminal fragment, residues 1-68; Without TCEP the samples are a mixture of monomer and disulphide-linked dimer; also called C26A mutant; C26 mutant
ΔTm of eIF4E at eIF4E:h4E-T(1-68) 1:1 (human eIF4E1a protein [7]): 12 ± 0.5 °C | ΔTm of eIF4E at eIF4E:h4E-T(1-68) 1:10 (human eIF4E1a protein [7]): 15.5 ± 0.5 °C | ΔTm of eIF4E at eIF4E:h4E-T(1-68) 1:1 (human eIF4E1a protein [3]): 9 ± 0.5 °C | ΔTm of eIF4E at eIF4E:h4E-T(1-68) 1:10 (human eIF4E1a protein [3]): 12.5 ± 0.5 °C | stoichiometry N [11]: 2
